Assay results published in patent US20150182581A1 (COUNCIL OF SCIENTIFIC AND INDUSTRIAL RESEARCH, published 2015).

biological target: ASK-1 + Nef (Nef and ASK1g co-transfected in ATCC CRL-1573 cells) (HIV-1; human, UniProt Q99683 1-1050); assay: cell-based or functional assay
Sequence (Q99683 1-1050): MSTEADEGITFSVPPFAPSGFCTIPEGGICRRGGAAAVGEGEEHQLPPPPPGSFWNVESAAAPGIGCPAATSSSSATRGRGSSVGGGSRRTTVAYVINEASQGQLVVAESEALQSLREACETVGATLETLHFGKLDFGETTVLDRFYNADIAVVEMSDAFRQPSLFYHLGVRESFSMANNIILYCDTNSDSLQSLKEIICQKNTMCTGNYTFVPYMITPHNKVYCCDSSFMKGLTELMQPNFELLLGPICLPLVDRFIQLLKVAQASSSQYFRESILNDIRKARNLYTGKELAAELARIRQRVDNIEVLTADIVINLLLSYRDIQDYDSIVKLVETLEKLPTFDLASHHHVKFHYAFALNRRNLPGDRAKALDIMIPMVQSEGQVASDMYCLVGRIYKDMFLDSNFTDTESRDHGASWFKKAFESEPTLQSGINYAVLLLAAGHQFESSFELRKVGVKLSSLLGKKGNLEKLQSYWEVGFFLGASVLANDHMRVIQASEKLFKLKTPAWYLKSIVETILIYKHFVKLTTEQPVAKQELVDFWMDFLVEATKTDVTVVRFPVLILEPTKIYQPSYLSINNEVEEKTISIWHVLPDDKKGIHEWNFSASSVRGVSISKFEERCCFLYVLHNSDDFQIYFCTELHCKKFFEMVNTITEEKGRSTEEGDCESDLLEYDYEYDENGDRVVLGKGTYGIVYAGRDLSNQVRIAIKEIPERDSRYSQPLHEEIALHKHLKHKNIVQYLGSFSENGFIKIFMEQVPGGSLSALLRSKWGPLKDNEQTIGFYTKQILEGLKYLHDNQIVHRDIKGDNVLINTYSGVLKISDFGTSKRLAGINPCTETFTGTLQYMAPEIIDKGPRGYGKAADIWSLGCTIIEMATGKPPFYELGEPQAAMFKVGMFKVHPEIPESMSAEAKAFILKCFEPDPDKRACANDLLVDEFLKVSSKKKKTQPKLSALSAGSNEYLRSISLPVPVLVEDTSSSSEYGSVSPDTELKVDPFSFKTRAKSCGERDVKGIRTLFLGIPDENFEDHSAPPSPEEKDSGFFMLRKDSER

Going from DEVGEANN [Peptide-3] to GENNCLLH [Peptide-2], the “% of Annexin V cells means apoptotic cells” value falls from 40.4% to 25%.

Compared with TPGPGVRYP [Peptide-1], LHGMEDPE [Peptide-4] is higher in “% of Annexin V cells means apoptotic cells” value: 22.4% for the first, 23% for the second.

In the case of PVRPQVPLRP [Peptide-5], the “% of Annexin V cells means apoptotic cells” value is reported as 22.4%.
